Experiments:
[1] = target: ARHGAP30, Q7Z6I6-2
[2] = target: ARHGAP30, Q7Z6I6-2; remark: listed apart in the source
[3] = target: rhg31_mouse Arhgap31 (UniProt A6X8Z5)
rhg31_mouse Arhgap31, sequence (A6X8Z5 whole entry): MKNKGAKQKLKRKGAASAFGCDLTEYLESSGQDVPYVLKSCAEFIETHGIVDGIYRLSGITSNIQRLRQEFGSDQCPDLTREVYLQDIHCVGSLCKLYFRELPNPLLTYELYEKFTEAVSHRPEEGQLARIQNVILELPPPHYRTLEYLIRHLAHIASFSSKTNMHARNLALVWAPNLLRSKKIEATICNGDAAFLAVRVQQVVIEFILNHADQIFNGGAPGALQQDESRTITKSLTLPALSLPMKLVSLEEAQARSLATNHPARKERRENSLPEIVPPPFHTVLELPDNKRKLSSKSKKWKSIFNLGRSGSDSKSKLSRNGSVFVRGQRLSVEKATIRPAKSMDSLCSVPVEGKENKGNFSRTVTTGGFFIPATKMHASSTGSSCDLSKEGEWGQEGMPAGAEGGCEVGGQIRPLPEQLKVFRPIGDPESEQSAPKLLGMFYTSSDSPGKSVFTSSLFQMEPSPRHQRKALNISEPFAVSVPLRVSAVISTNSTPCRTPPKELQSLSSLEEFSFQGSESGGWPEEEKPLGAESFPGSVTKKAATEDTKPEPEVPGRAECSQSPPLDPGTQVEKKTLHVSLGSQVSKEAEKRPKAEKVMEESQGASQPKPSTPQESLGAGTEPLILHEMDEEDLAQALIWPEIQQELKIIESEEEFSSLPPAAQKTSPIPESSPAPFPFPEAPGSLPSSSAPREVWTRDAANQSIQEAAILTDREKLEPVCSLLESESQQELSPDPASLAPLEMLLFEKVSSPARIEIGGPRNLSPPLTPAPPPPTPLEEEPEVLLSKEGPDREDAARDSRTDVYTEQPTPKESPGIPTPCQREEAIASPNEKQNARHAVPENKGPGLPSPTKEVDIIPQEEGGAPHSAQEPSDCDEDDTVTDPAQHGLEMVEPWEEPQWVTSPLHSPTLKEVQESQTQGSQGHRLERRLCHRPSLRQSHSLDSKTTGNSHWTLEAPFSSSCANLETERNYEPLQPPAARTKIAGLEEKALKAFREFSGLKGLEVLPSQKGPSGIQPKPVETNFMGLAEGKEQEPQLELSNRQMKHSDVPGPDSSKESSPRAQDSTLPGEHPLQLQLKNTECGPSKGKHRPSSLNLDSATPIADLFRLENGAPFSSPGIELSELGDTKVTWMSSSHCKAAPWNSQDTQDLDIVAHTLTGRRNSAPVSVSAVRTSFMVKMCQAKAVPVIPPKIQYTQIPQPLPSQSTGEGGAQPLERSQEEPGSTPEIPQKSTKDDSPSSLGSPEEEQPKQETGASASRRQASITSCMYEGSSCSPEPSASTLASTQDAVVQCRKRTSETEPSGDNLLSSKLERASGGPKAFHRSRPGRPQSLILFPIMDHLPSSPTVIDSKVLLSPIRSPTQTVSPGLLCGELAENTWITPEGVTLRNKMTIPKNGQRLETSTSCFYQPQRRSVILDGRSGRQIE

ARHGAP30, Q7Z6I6-2, sequence (Q7Z6I6 other isoform, or with tags, fused parts or gaps): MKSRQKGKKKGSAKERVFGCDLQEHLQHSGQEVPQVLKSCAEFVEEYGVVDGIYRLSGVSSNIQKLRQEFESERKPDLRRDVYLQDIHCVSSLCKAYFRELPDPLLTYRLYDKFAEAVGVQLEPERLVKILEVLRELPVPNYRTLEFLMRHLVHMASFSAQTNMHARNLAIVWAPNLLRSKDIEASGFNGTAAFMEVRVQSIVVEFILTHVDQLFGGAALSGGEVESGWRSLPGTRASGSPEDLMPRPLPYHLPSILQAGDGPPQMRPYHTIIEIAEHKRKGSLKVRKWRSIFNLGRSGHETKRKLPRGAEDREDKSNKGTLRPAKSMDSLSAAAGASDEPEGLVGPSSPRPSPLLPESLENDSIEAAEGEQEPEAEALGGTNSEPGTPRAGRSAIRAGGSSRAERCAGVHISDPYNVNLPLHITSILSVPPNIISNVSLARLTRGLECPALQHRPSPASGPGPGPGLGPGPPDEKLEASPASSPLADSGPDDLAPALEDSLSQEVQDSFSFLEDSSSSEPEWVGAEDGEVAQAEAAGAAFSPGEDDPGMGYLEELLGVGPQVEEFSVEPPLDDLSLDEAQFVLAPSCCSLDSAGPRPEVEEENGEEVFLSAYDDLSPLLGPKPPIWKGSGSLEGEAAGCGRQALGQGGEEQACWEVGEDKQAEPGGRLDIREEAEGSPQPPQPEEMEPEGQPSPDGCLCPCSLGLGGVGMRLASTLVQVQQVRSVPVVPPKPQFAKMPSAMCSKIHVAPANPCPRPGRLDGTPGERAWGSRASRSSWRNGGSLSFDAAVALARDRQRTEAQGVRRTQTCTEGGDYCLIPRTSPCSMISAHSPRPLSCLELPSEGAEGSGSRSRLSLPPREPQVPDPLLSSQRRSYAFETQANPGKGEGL
Rho-related GTP-binding protein RhoU (Homo sapiens), Q7L0Q8 F86C, sequence (Q7L0Q8 whole entry F86C): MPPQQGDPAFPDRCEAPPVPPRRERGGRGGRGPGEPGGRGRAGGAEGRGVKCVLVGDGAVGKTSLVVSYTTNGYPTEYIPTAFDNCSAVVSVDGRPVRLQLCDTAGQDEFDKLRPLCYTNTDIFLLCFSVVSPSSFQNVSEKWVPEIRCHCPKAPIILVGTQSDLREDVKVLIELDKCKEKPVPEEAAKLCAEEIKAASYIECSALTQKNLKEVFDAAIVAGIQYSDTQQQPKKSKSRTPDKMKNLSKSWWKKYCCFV

effect of a mutation on the interaction [1] | effect of a mutation on the interaction [2] | effect of a mutation on the interaction [3] | Substance
decreasing interaction strength | disrupting interaction strength | – | Rho-related GTP-binding protein RhoU (Homo sapiens), Q7L0Q8 F83G
– | with no effect | – | Rho-related GTP-binding protein RhoU (Homo sapiens), Q7L0Q8 F86C
– | with no effect | – | Rho-related GTP-binding protein RhoU (Homo sapiens), Q7L0Q8 P80G

Second part, the substance before the results:

Substance | effect of a mutation on the interaction [1] | effect of a mutation on the interaction [2] | effect of a mutation on the interaction [3]
Rho-related GTP-binding protein RhoU (Homo sapiens), Q7L0Q8 Q107L | – | with no effect | with no effect
Rho-related GTP-binding protein RhoU (Homo sapiens), Q7L0Q8 T63N | – | with no effect | disrupting interaction strength
